From publication PMC6929039

Biological target: Concanavalin A (Con A) (UniProt P02866 164-281+30-148, internal_change)
Assay: particle flow cytometry; 10 nM Con A; binding buffer, salt, pH and temperature not given in the material (hemagglutination: 30 min preincubation at RT)

B1: ConA-3-1n (ssDNA)
DNA: GATCCCAGTCCGAAGTAATCGTTGCATCTGCACGACTGGTGAGCTTGAGTGGCAGAAGAACTTGTGCAAACGGCTATAGG
modifications: none
B1: no binding.
